Assays:
[1] = tested on: Saccharomyces cerevisiae GPD1; details: read-out: NADH KM; Albertyn et al. 1992; cited from earlier work
[2] = tested on: Leishmania mexicana GPD; details: read-out: NADH KM; Marche et al, 2000; cited from earlier work
[3] = tested on: Jaculus orientalis GPD; details: read-out: NADH KM; Berrada et al, 2002; cited from earlier work
[4] = tested on: Dunaliella viridis GPDH1; details: read-out: NADH KM; He et al, 2009; cited from earlier work
[5] = tested on: Dunaliella viridis GPDH2; details: read-out: NADH KM; He et al, 2009; cited from earlier work
[6] = tested on: Drosophila melanogaster GPDH1 (flight muscle); details: read-out: NADH KM; Niesel et al, 1982; cited from earlier work
[7] = tested on: E. coli gpsA (glycerol-3-phosphate dehydrogenase); details: cited from earlier work; for affinity for the cofactors NADH and NADPH: Edgar and Bell, JBC 255:3492-7 (1980)
[8] = tested on: Saccharomyces phosphatase GPP1; details: Norbeck, JBC 271:13875-81 (1996); cited from earlier work
[9] = tested on: Saccharomyces phosphatase GPP2; details: Norbeck, JBC 271:13875-81 (1996); cited from earlier work
[10] = tested on: NC(=O)C1=CN([C@@H]2O[C@H](COP(=O)(O)OP(=O)(O)OC[C@H]3O[C@@H](n4cnc5c(N)ncnc54)[C@H](O)[C@@H]3O)[C@@H](O)[C@H]2O)C=CC1; test: cells, lysate or membranes named; details: pH 6.8; 30.0 °C
[11] = tested on: NC(=O)C1=CN([C@@H]2O[C@H](COP(=O)(O)OP(=O)(O)OC[C@H]3O[C@@H](n4cnc5c(N)ncnc54)[C@H](OP(=O)(O)O)[C@@H]3O)[C@@H](O)[C@H]2O)C=CC1; test: cells, lysate or membranes named; details: pH 6.8; 30.0 °C
[12] = substrate: NC(=O)C1=CN([C@@H]2O[C@H](COP(=O)(O)OP(=O)(O)OC[C@H]3O[C@@H](n4cnc5c(N)ncnc54)[C@H](O)[C@@H]3O)[C@@H](O)[C@H]2O)C=CC1; test: cells, lysate or membranes named; format: biochemical, Saccharomyces cerevisiae; details: E. coli expressed, 30.0 °C
Experimental: Glycerol-3-phosphate production was measured by LC/MS.
The data used in this section are provided in Table 11, and includes measurements of the metabolic products and the in vitro measurements of GPD as described above.

[13] = substrate: NC(=O)C1=CN([C@@H]2O[C@H](COP(=O)(O)OP(=O)(O)OC[C@H]3O[C@@H](n4cnc5c(N)ncnc54)[C@H](O)[C@@H]3O)[C@@H](O)[C@H]2O)C=CC1; test: purified protein, by the assay type; details: pH 6.8, 30.0 °C
[14] = substrate: NC(=O)C1=CN([C@@H]2O[C@H](COP(=O)(O)OP(=O)(O)OC[C@H]3O[C@@H](n4cnc5c(N)ncnc54)[C@H](OP(=O)(O)O)[C@@H]3O)[C@@H](O)[C@H]2O)C=CC1; test: purified protein, by the assay type; details: pH 6.8; 30.0 °C
[15] = substrate: NC(=O)C1=CN([C@@H]2O[C@H](COP(=O)(O)OP(=O)(O)OC[C@H]3O[C@@H](n4cnc5c(N)ncnc54)[C@H](O)[C@@H]3O)[C@@H](O)[C@H]2O)C=CC1; test: cells, lysate or membranes named; details: pH 6.8; 30.0 °C; remark: listed apart in the source
[16] = substrate: NC(=O)C1=CN([C@@H]2O[C@H](COP(=O)(O)OP(=O)(O)OC[C@H]3O[C@@H](n4cnc5c(N)ncnc54)[C@H](OP(=O)(O)O)[C@@H]3O)[C@@H](O)[C@H]2O)C=CC1; test: cells, lysate or membranes named; details: pH 6.8; 30.0 °C; remark: listed apart in the source
[17] = other: GPD1 WT_y, crude cell extract, pH 6.8, 1 mM dihydroxyacetone phosphate

Molecule: NC(=O)C1=CN([C@@H]2O[C@H](COP(=O)(O)OP(=O)(O)OC[C@H]3O[C@@H](n4cnc5c(N)ncnc54)[C@H](O)[C@@H]3O)[C@@H](O)[C@H]2O)C=CC1 [NADH, reduced nicotinamide adenine dinucleotide]
- Km [1]: 23 µM
- Km [2]: 24 µM
- Km [3]: 32 µM
- Km [4]: 58.9 µM
- Km [5]: 59.2 µM
- Km [6]: 78 µM
- affinity for the cofactors NADH and NADPH [7]: substantially the same affinity

Molecule: NC(=O)C1=CN([C@@H]2O[C@H](COP(=O)(O)OP(=O)(O)OC[C@H]3O[C@@H](n4cnc5c(N)ncnc54)[C@H](OP(=O)(O)O)[C@@H]3O)[C@@H](O)[C@H]2O)C=CC1 [NADPH, reduced nicotinamide adenine dinucleotide phosphate]
- affinity for the cofactors NADH and NADPH [7]: substantially the same affinity

Molecule: O=P(O)(O)OC[C@H](O)CO [glycerol-3-phosphate]
- Michaelis constant [8]: 3.1
- Michaelis constant [9]: 3.9
- product inhibition by glycerol-3-phosphate [7]: product inhibited

Molecule: Rickettsia prowazekii str. BuV67-CWPP GPD (gene SEQ ID NO: 16; SEQ ID NO: 192) (Rickettsia prowazekii str. Madrid E)
- Km [10]: 664 µM
- Km [11]: 4 µM

B1: Saccharomyces cerevisiae GPD1 (glycerol-3-phosphate dehydrogenase), wild type, SEQ ID NO: 195 (Saccharomyces cerevisiae S288C) (protein)
chain: MSAAADRLNLTSGHLNAGRKRSSSSVSLKAAEKPFKVTVIGSGNWGTTIAKVVAENCKGYPEVFAPIVQMWVFEEEINGEKLTEIINTRHQNVKYLPGITLPDNLVANPDLIDSVKDVDIIVFNIPHQFLPRICSQLKGHVDSHVRAISCLKGFEVGAKGVQLLSSYITEELGIQCGALSGANIATEVAQEHWSETTVAYHIPKDFRGEGKDVDHKVLKALFHRPYFHVSVIEDVAGISICGALKNVVALGCGFVEGLGWGNNASAAIQRVGLGEIIRFGQMFFPESREETYYQESAGVADLITTCAGGRNVKVARLMATSGKDAWECEKELLNGQSAQGLITCKEVHEWLETCGSVEDFPLFEAVYQIVYNNYPMKNLPDMIEELDLHED
notes: also native or codon-optimized GPD1 in yeast PNY2145-derived strains (T12); full length 391 aa
- Km [12, 17]: 13 µM
- Vmax [12, 17]: 9000 µM/min
- Km ([12]; other: one experiment, in parallel with Drosophila isoform C, pH 6.8): 5 µM

B2: Beggiatoa alba GPD (SEQ ID NO: 17; SEQ ID NO: 193) (Beggiatoa alba B18LD) (protein)
chain: MLSPSALLVLGAGSWGTALALALARRQYPIYLWGKDPAHVHTLQIQRCNQRFLPNAVFPDNLYAITDFVTLMPIVEDIIIVVPSHGFRETLKKIKPYITKNHRLCWATKGLEYQTGLLLHEVARAELGDNIPLAVLSGPSFAGEVAAALPTAVTIAAQDIENAHHVAQLFHQASFRAYTSNDMVGVQIGGAVKNVIAIAAGIADGLKMGANTRAALITRGLSEIVRLGIALGGQRETFMGLAGLGDLVLTCTDNQSRNRRFGYALAQGISLEAAQAQVGQVVEGIHAATITHQLAQQHGVEMPIVNHVNQVLTGQSTPLEAAQALLAREPKPEML
- Km [13]: 101 µM
- Km [14]: 6 µM

B3: Archaeoglobus fulgidus DSM 4304 GPD (gene SEQ ID NO: 14) (Archaeoglobus fulgidus DSM 4304) (protein)
chain: MIVSILGAGAMGSALSVPLVDNGNEVRIWGTEFDTEILKSISAGREHPRLGVKLNGVEIFWPEQLEKCLENAEVVLLGVSTDGVLPVMSRILPYLKDQYIVLISKGLIDFDNSVLTVPEAVWRLKHDLRERTVAITGPAIAREVAKRMPTTVVFSSPSESSANKMKEIFETEYFGVEVTTDIIGTEITSALKNVYSIAIAWIRGYESRKNVEMSNAKGVIATRAINEMAELIEILGGDRETAFGLSGFGDLIATFRGGRNGMLGELLGKGLSIDEAMEELERRGVGVVEGYKTAEKAYRLSSKINADTKLLDSIYRVLYEGLKVEEVLFELATFK
- Km [15]: 5 µM
- Km [16]: 7 µM

B4: Drosophila melanogaster glycerol 3 phosphate dehydrogenase, isoform C (gi: 22945708) (Drosophila melanogaster) (protein)
chain: MADKVNVCIVGSGNWGSAIAKIVGANAAALPEFEERVTMFVYEELIDGKKLTEIINETHENVKYLKGHKLPPNVVAVPDLVEAAKNADILIFVVPHQFIPNFCKQLLGKIKPNAIAISLIKGFDKAEGGGIDLISHIITRHLKIPCAVLMGANLANEVAEGNFCETTIGCTDKKYGKVLRDLFQANHFRVVVVDDADAVEVCGALKNIVACGAGFVDGLKLGDNTKAAVIRLGLMEMIRFVDVFYPGSKLSTFFESCGVADLITTCYGGRNRRVSEAFVTSGKTIEELEKEMLNGQKLQGPPTAEEVNYMLKNKGLEDKFPLFTAIHKICTNQLKPNDLIDCIRNHPEHMDTSIMPSPKL
- Km ([13]; other: one experiment, in parallel with Saccharomyces GPD1, E. coli expressed): 5 µM

B5: Kangiella koreensis GPD (SEQ ID NO: 18; SEQ ID NO: 194) (Kangiella koreensis DSM 16069) (protein)
chain: MSAQLSFAVLGAGSYGTALAVLLARNGHSVQLWARNSQHVVEMQQAKQNTKYLPDVAFPDNLSVTDQIDVALKHHPIILVAVPSHAFRDTLYLIKPLVNQDSKLVWASKGLDPDSGDLLGNVLKNILGDNMPHAILSGPTFAKEMAIGMPTAITLAANNDDFAEQLALALHNERFRVYTSDDIVGVQVGGAVKNVVAIGAGIADGLGYGANARTALITRGLAEMTRLGVAAGGKQETFNGMAGMGDLVLTCTDNQSRNRRFGLALGKGANRDEAEHAIGQVVEGVRNAKEVKMLAERLGVEMPISDAIYRIIYEGVDARQAAHELLTRDLKSEG
- Km [13]: 2018 µM
- Km [14]: 1 µM
